According to US10407511B2, “Covalently linked helicar-anti-helicar antibody conjugates and uses thereof” (Hoffmann-La Roche Inc., priority 2014, dated 2019):
pKd: −log10 of the molar value. Numbered stars: 1 amine (or outer) side, 2 acyl side, 3 side chain; on linkers, the order of the positions; unused ones are H or OH. Square brackets hold non-standard residues; d marks the D form. Ends that are not written are not given here. Pqa = 4-oxo-6-(1-piperazinyl)-3(4H)-quinazoline-acetic acid, O=C(Cn1cnc2ccc(N3CCN([*:1])CC3)cc2c1=O)[*:2]; NMeR = CN[C@@H](CCCNC(=N)N)C(=O)O

What was measured:
[1] = Dig-peptide serum kinetic (Western blot of digoxigenylated PYY in serum); type: in vivo, mice (strain NRMI)
Method: Serum samples were stored at −80° C.
The determination of the amount of digoxigenylated peptide in the serum at the given time points was difficult compared to the detection of Dig-Cy5 as no direct means to detect the polypeptide in serum samples was available. Therefore, a Western-Blot related assay to detect digoxigenylated peptide in serum was established. In a first step, the serum samples were separated on reducing SDS-PAGE. Because sample preparation included exposure of the serum to high concentrations of SDS and reducing agents, complexed Dig-polypeptide conjugates can become released from the (completely denatured/unfolded) anti-digoxigenin antibody, whereas covalently conjugates remained bound. To mediate the release of the polypeptide from the non-covalent antibody complex and separate the individual components by SDS-PAGE, 2 μl of each serum sample was diluted in 18 μl 20 mM histidine/140 mM NaCl pH 6.0, mixed with 6.7 μl of 4×LDS sample buffer and 3 μl of 10× sample reducing agent (NuPAGE, Invitrogen) for 5 min at 95° C. As a control, 2 μl of serum of an untreated mouse of the same strain was used. Samples were applied to a 4-12% Bis-Tris Gel (NuPAGE, Invitrogen) which was run at 200 V/120 mA for 20 minutes using 1×MES (Invitrogen) as a running buffer. Subsequently, separated polypeptides were blotted onto a PVDF membrane (0.22 μm pore size, Invitrogen) using the XCell Sure Lock® Mini-Cell system (Invitrogen) for 40 min at 25 V/130 mA. Membranes were blocked in 1% skim milk in 1×PBS+1% Tween20 (PBST) for 1 h at RT. Digoxigenylated polypeptides were subsequently detected on the membrane with an anti-digoxigenin antibody. For that, anti-digoxigenin antibody was applied to the membranes in a concentration of 13 μg/ml in 10 ml of 1% skim milk/PBST for 2 h at RT. Membranes were washed for 3×5 min in 1×PBST. Anti-mouse IgG Fab-fragments coupled to POD from the LumiLight^PLUS Western Blotting Kit (Roche) was applied in a 1:25 dilution in 10 ml of 1% skim milk/PBST for 1 h at RT. […] Chemiluminescence was detected with the LumiImager F1 (Roche) with an exposure time of 20 min.

[2] = molecular target: T1, NPY5R (Homo sapiens, UniProt Q15761); test: effect on Y2Receptor family: NPY5R; type: cell-based
T1 sequence (Q15761 1-445): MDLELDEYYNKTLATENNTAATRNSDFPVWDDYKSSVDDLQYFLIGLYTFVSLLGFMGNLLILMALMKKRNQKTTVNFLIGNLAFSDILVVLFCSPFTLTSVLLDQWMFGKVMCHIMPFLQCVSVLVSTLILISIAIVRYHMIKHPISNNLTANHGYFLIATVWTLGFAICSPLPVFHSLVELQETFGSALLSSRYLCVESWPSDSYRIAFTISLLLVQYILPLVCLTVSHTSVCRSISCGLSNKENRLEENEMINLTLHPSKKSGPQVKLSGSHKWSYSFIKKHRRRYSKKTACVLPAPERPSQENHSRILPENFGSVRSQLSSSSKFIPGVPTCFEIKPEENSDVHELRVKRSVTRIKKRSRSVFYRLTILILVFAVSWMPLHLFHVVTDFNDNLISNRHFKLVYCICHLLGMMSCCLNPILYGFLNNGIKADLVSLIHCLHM

[3] = molecular target: NPY4R (Homo sapiens, UniProt P50391); test: effect on Y2Receptor family: NPY4R; type: cell-based
[4] = molecular target: anti-helicar motif amino acid sequence antibody; test: binding [Kd] of PYY peptides by anti-helicar antibody; details: PYY peptide bound by anti-helicar antibody
[5] = molecular target: T2, NPY2R (Homo sapiens, UniProt P49146); test: effect on Y2Receptor family: NPY2R; type: cell-based
T2 sequence (P49146 1-381): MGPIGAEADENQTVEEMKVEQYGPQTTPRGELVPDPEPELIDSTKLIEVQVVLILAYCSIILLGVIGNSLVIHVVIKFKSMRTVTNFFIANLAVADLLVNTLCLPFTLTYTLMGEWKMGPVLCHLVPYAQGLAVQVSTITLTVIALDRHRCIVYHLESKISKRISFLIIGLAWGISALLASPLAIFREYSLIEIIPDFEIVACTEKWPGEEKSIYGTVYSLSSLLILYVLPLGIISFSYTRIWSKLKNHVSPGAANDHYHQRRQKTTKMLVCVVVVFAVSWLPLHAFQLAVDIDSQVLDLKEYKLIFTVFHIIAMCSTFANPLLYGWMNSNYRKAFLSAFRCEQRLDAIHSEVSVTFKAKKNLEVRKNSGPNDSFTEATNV

[6] = molecular target: T3, NPY1R (Homo sapiens, UniProt P25929); test: effect on Y2Receptor family: NPY1R; type: cell-based
T3 sequence (P25929 1-384): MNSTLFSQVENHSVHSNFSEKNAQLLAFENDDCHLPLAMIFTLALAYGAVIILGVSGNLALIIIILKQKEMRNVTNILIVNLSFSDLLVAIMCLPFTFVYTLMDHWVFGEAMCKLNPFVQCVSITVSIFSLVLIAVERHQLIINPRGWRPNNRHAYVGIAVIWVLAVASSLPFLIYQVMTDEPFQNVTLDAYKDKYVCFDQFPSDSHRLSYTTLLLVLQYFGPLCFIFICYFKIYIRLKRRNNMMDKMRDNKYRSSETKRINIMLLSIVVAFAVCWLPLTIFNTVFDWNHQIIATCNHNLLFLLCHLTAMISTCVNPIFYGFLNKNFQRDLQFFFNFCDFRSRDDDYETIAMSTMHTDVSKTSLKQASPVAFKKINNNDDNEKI

Sequence of NPY4R (P50391 whole entry, species assumed): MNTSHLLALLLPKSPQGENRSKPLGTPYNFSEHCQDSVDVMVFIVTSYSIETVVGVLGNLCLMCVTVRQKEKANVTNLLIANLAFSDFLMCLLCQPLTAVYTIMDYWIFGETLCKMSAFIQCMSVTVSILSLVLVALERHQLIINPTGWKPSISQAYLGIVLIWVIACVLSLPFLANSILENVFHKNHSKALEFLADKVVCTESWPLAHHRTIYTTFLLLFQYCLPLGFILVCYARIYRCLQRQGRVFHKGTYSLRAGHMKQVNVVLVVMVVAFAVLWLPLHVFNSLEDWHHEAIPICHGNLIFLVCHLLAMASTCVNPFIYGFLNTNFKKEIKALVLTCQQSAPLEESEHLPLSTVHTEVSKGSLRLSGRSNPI

Substance: DIG-PYY: digoxigenylated PYY polypeptide
- digoxigenylated polypeptide signal in serum ([1]; 5 min after administration): only in trace amounts
- digoxigenylated polypeptide signal in serum ([1]; later time points up to 24 hrs.): no defined polypeptide band was detectable
- half-life in the serum ([1]; mouse, in vivo): very short half-life

Substance: IKPEAPGEDASPEAHLANEVARLHYLNLVTRQRY-NH2 [PYY_helicar]
- NPY5R [2]: inactive
- NPY4R [3]: inactive
- pKd [4]: 7.92
- NPY2R [5]: 6.38 nM

Substance: Ac-Ile-Lys-Pqa-Arg-His-Tyr-Leu-Asn-Trp-Val-Thr-Arg-Gln-(NMe)-Arg-Try-NH2 * 4 HOAc (Ac-IK[Pqa]RHYLNWVTRQ[NMeR]Y-NH2; also: 4 HOAc salt) [reference compound]
- NPY5R [2]: inactive
- NPY4R [3]: inactive
- NPY2R [5]: 1.0 nM
- NPY1R [6]: inactive
